B1: ZNF449 (parent)
chain: CTHCSKSFRQRAGLIMHQVTHFRG
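Also: lentivirally expressed fusions sorted by FACS into six bins by GFP to DsRed ratio, PSI derived from sequencing read proportions per bin multiplied by bin number.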

The variants in the data set derive from B1. The data set is described as follows: protein stability index of a GFP-peptide fusion (GPS, HEK-293T) (PSI 1-6); higher = more stable. The conditions noted are these: c terminus: a fixed tail appended.
Turning to CTHCSKSFRWRAGLIMHQVTHFRG [Q10W], the protein stability index stood at 2.77. Under CTHVSKSFRQRAGLIMHQVTHFRG [C4V] stands 1.58; under CTHWSKSFRQRAGLIMHQVTHFRG [C4W], 3.01; under CTHPSKSFRQRAGLIMHQVTHFRG [C4P], 1.6. Under CTHLSKSFRQRAGLIMHQVTHFRG [C4L] stands 2.13. In the case of CTHKSKSFRQRAGLIMHQVTHFRG [C4K], the protein stability index came out at 1.63. In the case of CTHNSKSFRQRAGLIMHQVTHFRG [C4N], the protein stability index amounted to 2.17. Regarding CTHHSKSFRQRAGLIMHQVTHFRG [C4H], the protein stability index turned out to be 2.39. The result for CTHISKSFRQRAGLIMHQVTHFRG [C4I] reads 2.58; that for CTHQSKSFRQRAGLIMHQVTHFRG [C4Q], 1.98. Under CTHRSKSFRQRAGLIMHQVTHFRG [C4R] stands 2.11. Under CTHTSKSFRQRAGLIMHQVTHFRG [C4T] stands 2.18; under CTHSSKSFRQRAGLIMHQVTHFRG [C4S], 1.33; under CTHMSKSFRQRAGLIMHQVTHFRG [C4M], 1.68. In the case of CTHCYKSFRQRAGLIMHQVTHFRG [S5Y], the protein stability index is 2.75. The result for CTHCTKSFRQRAGLIMHQVTHFRG [S5T] reads 1.49; that for CTHCFKSFRQRAGLIMHQVTHFRG [S5F], 1.7.

With CTHCAKSFRQRAGLIMHQVTHFRG [S5A], the protein stability index came out at 1.98.

Turning to CTHCKKSFRQRAGLIMHQVTHFRG [S5K], the protein stability index came out at 2.52. The result for CTHCMKSFRQRAGLIMHQVTHFRG [S5M] reads 1.56; that for CTHCWKSFRQRAGLIMHQVTHFRG [S5W], 2.06. For CTHCPKSFRQRAGLIMHQVTHFRG [S5P], the protein stability index is 2.28. The result for CTHCNKSFRQRAGLIMHQVTHFRG [S5N] reads 1.88; that for CTHCEKSFRQRAGLIMHQVTHFRG [S5E], 1.67; that for CTHCHKSFRQRAGLIMHQVTHFRG [S5H], 2.03. Regarding CTHCDKSFRQRAGLIMHQVTHFRG [S5D], the protein stability index worked out at 1.73. On to CTHCGKSFRQRAGLIMHQVTHFRG [S5G], for which the protein stability index is 2.06.

For the variant CTHCRKSFRQRAGLIMHQVTHFRG [S5R], the protein stability index stood at 1.7.

CTHCCKSFRQRAGLIMHQVTHFRG [S5C]: the protein stability index was 2.1. For CTHCLKSFRQRAGLIMHQVTHFRG [S5L], the protein stability index amounted to 1.49. The result for CTHCSQSFRQRAGLIMHQVTHFRG [K6Q] reads 3.32; that for CTHCSMSFRQRAGLIMHQVTHFRG [K6M], 1.88.

For the variant CTHCSCSFRQRAGLIMHQVTHFRG [K6C], the protein stability index came to 1.52. The result for CTHCSTSFRQRAGLIMHQVTHFRG [K6T] reads 2.84; that for CTHCSRSFRQRAGLIMHQVTHFRG [K6R], 1.91. On to CTHCSASFRQRAGLIMHQVTHFRG [K6A], for which the protein stability index is 4.92.

Consider CTHCSISFRQRAGLIMHQVTHFRG [K6I], for which the protein stability index worked out at 2.47. Under CTHCSLSFRQRAGLIMHQVTHFRG [K6L] stands 2.3.

As to CTHCSESFRQRAGLIMHQVTHFRG [K6E], the protein stability index was found to be 1.58. In the case of CTHCSYSFRQRAGLIMHQVTHFRG [K6Y], the protein stability index was 2.62.

With CTHCSDSFRQRAGLIMHQVTHFRG [K6D], the protein stability index stood at 1.62.

In the case of CTHCSKSNRQRAGLIMHQVTHFRG [F8N], the protein stability index worked out at 2.04. On to CTHCSKSERQRAGLIMHQVTHFRG [F8E], for which the protein stability index amounted to 2.19.

As to CTHCSKSIRQRAGLIMHQVTHFRG [F8I], the protein stability index was determined as 2.15. Regarding CTHCSKSPRQRAGLIMHQVTHFRG [F8P], the protein stability index was 1.81. Under CTHCSKSVRQRAGLIMHQVTHFRG [F8V] stands 1.07; under CTHCSKSMRQRAGLIMHQVTHFRG [F8M], 1.38. The result for CTHCSKSLRQRAGLIMHQVTHFRG [F8L] reads 1.79; that for CTHCSKSDRQRAGLIMHQVTHFRG [F8D], 1.54; that for CTHCSKSCRQRAGLIMHQVTHFRG [F8C], 2.74. The result for CTHCSKSKRQRAGLIMHQVTHFRG [F8K] reads 1.9. Turning to CTHCSKSRRQRAGLIMHQVTHFRG [F8R], the protein stability index stood at 2.1. For the variant CTHCSKSQRQRAGLIMHQVTHFRG [F8Q], the protein stability index was determined as 2.17. With CTHCSKSSRQRAGLIMHQVTHFRG [F8S], the protein stability index is 2.43.

As to CTHCSKSTRQRAGLIMHQVTHFRG [F8T], the protein stability index was found to be 1.7. The result for CTHCSKSARQRAGLIMHQVTHFRG [F8A] reads 1.91; that for CTHCSKSHRQRAGLIMHQVTHFRG [F8H], 1.44; that for CTHCSKSYRQRAGLIMHQVTHFRG [F8Y], 3.03. Consider CTHCSKSFRQDAGLIMHQVTHFRG [R11D], for which the protein stability index worked out at 1.58.

Regarding CTHCSKSFRQLAGLIMHQVTHFRG [R11L], the protein stability index is 3.44. For the variant CTHCSKSFRQMAGLIMHQVTHFRG [R11M], the protein stability index was found to be 3.23. Regarding CTHCSKSFRQCAGLIMHQVTHFRG [R11C], the protein stability index is 3.42.

Turning to CTHCSKSFRQGAGLIMHQVTHFRG [R11G], the protein stability index came out at 2.28.

For CTHCSKSFRQNAGLIMHQVTHFRG [R11N], the protein stability index was 1.8.

CTHCSKSFRQKAGLIMHQVTHFRG [R11K]: the protein stability index was 1.82. Under CTHCSKSFRQWAGLIMHQVTHFRG [R11W] stands 1.94; under CTHCSKSFRQTAGLIMHQVTHFRG [R11T], 1.69. The result for CTHCSKSFRQFAGLIMHQVTHFRG [R11F] reads 2.46; that for CTHCSKSFRQEAGLIMHQVTHFRG [R11E], 2.79; that for CTHCSKSFRQPAGLIMHQVTHFRG [R11P], 1.84. The result for CTHCSKSFRQSAGLIMHQVTHFRG [R11S] reads 1.48.

Turning to CTHCSKSFRQHAGLIMHQVTHFRG [R11H], the protein stability index amounted to 1.87.

For CTHCSKSFRQYAGLIMHQVTHFRG [R11Y], the protein stability index was 2.29. Under CTHCSKSFRQQAGLIMHQVTHFRG [R11Q] stands 1.8; under CTHCSKSFRQAAGLIMHQVTHFRG [R11A], 2.28.

For the variant CTHCSKSFRQVAGLIMHQVTHFRG [R11V], the protein stability index came out at 2.23. Turning to CTHCSKSFRQRAGSIMHQVTHFRG [L14S], the protein stability index turned out to be 1.9. Take CTHCSKSFRQRAGPIMHQVTHFRG [L14P]: the protein stability index worked out at 1.54. The result for CTHCSKSFRQRAGDIMHQVTHFRG [L14D] reads 2.14; that for CTHCSKSFRQRAGFIMHQVTHFRG [L14F], 2.54; that for CTHCSKSFRQRAGVIMHQVTHFRG [L14V], 2.37. Under CTHCSKSFRQRAGKIMHQVTHFRG [L14K] stands 2.05; under CTHCSKSFRQRAGWIMHQVTHFRG [L14W], 2.05; under CTHCSKSFRQRAGHIMHQVTHFRG [L14H], 2. The result for CTHCSKSFRQRAGYIMHQVTHFRG [L14Y] reads 1.5.

On to CTHCSKSFRQRAGEIMHQVTHFRG [L14E], for which the protein stability index is 1.95. As for CTHCSKSFRQRAGNIMHQVTHFRG [L14N], the protein stability index stood at 1.49.

For the variant CTHCSKSFRQRAGQIMHQVTHFRG [L14Q], the protein stability index was 2.02.

With CTHCSKSFRQRAGGIMHQVTHFRG [L14G], the protein stability index turned out to be 1.41. The result for CTHCSKSFRQRAGCIMHQVTHFRG [L14C] reads 1.73; that for CTHCSKSFRQRAGMIMHQVTHFRG [L14M], 1.97. Turning to CTHCSKSFRQRAGRIMHQVTHFRG [L14R], the protein stability index was 2.01. The result for CTHCSKSFRQRAGIIMHQVTHFRG [L14I] reads 1.3; that for CTHCSKSFRQRAGTIMHQVTHFRG [L14T], 2.09.

These data come from the supplement of paper PMC10567573.
